Measurements: publication PMC3924328, “Structure of the S100A4/myosin-IIA complex” (BMC Structural Biology, 2013)
The star is where a group is joined. FITC = O=C1OC2(c3ccc(O)cc3Oc3cc(O)ccc32)c2ccc(NC(=S)*)cc21; Ahx = NCCCCCC(=O)O

B1: FITC-MIIA^1904-1927 peptide (peptide)
peptide: {FITC-Ahx}-TETADAMNREVSSLKNKLRRGDLP-NH2
SMILES: CSCC[C@H](NC(=O)[C@H](C)NC(=O)[C@H](CC(=O)O)NC(=O)[C@H](C)NC(=O)[C@@H](NC(=O)[C@H](CCC(=O)O)NC(=O)[C@@H](NC(=O)CCCCCNC(=S)Nc1ccc2c(c1)C(=O)OC21c2ccc(O)cc2Oc2cc(O)ccc21)[C@@H](C)O)[C@@H](C)O)C(=O)N[C@@H](CC(N)=O)C(=O)N[C@@H](CCCNC(=N)N)C(=O)N[C@@H](CCC(=O)O)C(=O)N[C@H](C(=O)N[C@@H](CO)C(=O)N[C@@H](CO)C(=O)N[C@@H](CC(C)C)C(=O)N[C@@H](CCCCN)C(=O)N[C@@H](CC(N)=O)C(=O)N[C@@H](CCCCN)C(=O)N[C@@H](CC(C)C)C(=O)N[C@@H](CCCNC(=N)N)C(=O)N[C@@H](CCCNC(=N)N)C(=O)NCC(=O)N[C@@H](CC(=O)O)C(=O)N[C@@H](CC(C)C)C(=O)N1CCC[C@H]1C(N)=O)C(C)C
notes: source: synthetic peptide (Bio-Synthesis Inc.)
B2: MIIA^1851-1960 (C-terminal fragment of the human myosin-IIA heavy chain) (domain or fragment, UniProt P35579 1851-1960, looked up)
chain: VDDERRNAEQYKDQADKASTRLKQLKRQLEEAEEEAQRANASRRKLQRELEDATETADAMNREVSSLKNKLRRGDLPFVVPRRMARKGAGDGSDEEVDGKADGAEAKPAE
notes: about 75 residues of the coiled-coil and the entire C-terminal tailpiece; A dimer when alone (sedimentation equilibrium); Printed monomer mass 12,397.5 Da; source: E. coli BL21(DE3)*, purified (High Q Sepharose, hydroxyapatite, Sephacryl S200)
B3: S100A4 (wild-type, full-length, human) (natural protein)
chain: not shown
notes: Dimer; also called wild-type S100A4; Ca^2+-S100A4; source: E. coli BL21(DE3)*, purified (ammonium sulfate, Phenyl-Sepharose, Q XL anion exchange); 15N-labelled from M9 medium for NMR

What was measured:
[1] = target: T1, S100A4Δ8C (S100A4 with the C-terminal eight amino acids deleted) (human, UniProt P26447 1-93); assay: fluorescence polarisation; direct anisotropy titration; 50 nM FITC-MIIA^1904-1927, 0-30 μM S100A4Δ8C dimer; 22°C; 20 mM Tris pH 7.5, 150 mM KCl, 1 mM DTT, 0.5 mM CaCl2, 0.5 mg/ml BSA; single site saturation fit; conditions: both partners purified
T1 construct: S100A4, human, codon-optimized, untagged, in pET11b; deletion of the C-terminal eight amino acids (residues 94-101 absent); Dimer; also called Ca^2+-S100A4Δ8C; apo-S100A4Δ8C; source: E. coli BL21(DE3)*, purified (ammonium sulfate, Phenyl-Sepharose, Q XL anion exchange; Superdex 75 for crystallization)
T1 sequence (P26447 1-93, stated change not applied): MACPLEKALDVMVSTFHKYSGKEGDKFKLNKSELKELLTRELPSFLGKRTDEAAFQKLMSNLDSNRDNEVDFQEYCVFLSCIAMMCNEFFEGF

[2] = target: B3; assay: AUC; sedimentation equilibrium, 22°C, interference optics; 20 mM Tris pH 7.5, 150 mM KCl, 0.5 mM CaCl2, 1 mM TCEP; MIIA^1851-1960 alone and mixed with S100A4 at 0.5:1 and 1:1 (dimer:dimer); 12,000, 20,000 and 28,000 rpm; conditions: both partners purified
[3] = target: the molecule itself; assay: as above
[4] = target: B3; assay: fluorescence polarisation; competition anisotropy; 50 nM FITC-MIIA^1904-1927, 0.3 μM S100A4 dimer, 0-10 μM MIIA^1851-1960 dimer; 22°C; 20 mM Tris pH 7.5, 150 mM KCl, 1 mM DTT, 0.5 mM CaCl2, 0.5 mg/ml BSA; conditions: both partners purified
[5] = target: B3; assay: AUC; sedimentation velocity, 22°C, 53,000 rpm; 20 mM Tris pH 7.5, 150 mM KCl, 0.5 mM CaCl2, 1 mM TCEP; each protein alone and MIIA^1851-1960 dimer:S100A4 dimer at 0.5:1, 1:1, 1.5:1; conditions: both partners purified

Question: How did the Kd [1] turn out when B1 was run?
Answer: 510 ± 50 nM

Question: Which results are given for B2?
Answer: stoichiometry N [2]: 1 MIIA^1851-1960 polypeptide chain per S100A4 dimer; stoichiometry N [3]: 2; IC50 [4]: 21.2 nM; stoichiometry N [5]: 1 MIIA^1851-1960 polypeptide per S100A4 dimer

Question: Does B3 bind [3]?
Answer: binds
